From patent publication US20150351390A1, “COMPOSITIONS AND METHODS FOR AUXIN-ANALOG CONJUGATION” (PIONEER HI-BRED INTERNATIONAL, INC., priority 2012, published 2015)
Entries after “also recorded” stand apart in the source; their conditions may differ.

Legend:
Format in all cases: biochemical
[1] = LC-MS assay of GH3 conjugation of 2,4-D with Asp or Glu; conditions: for Detected auxin conjugates: 2,4-D-Asp / Detected auxin conjugates: 2,4-D-Glu: LC-MS; for Detected auxin conjugates: 2,4-D-Asp: 2,4-D with Asp; for Detected auxin conjugates: 2,4-D-Glu: 2,4-D with Glu
Procedure, shortened: (§1)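 Amino acid conjugates of IAA, 2,4-D or dicamba measured by LC-MS against conjugate standards, with kinetic parameters fitted to Michaelis-Menten initial velocities. Reactions: 5 mM each of auxin, ATP and Asp or Glu with 44 to 164 μg/mL purified His-tagged GH3 (E. coli-expressed), pH 8.0 Tris, 5 mM MgCl2, 1 mM DTT, 30 °C for 3 h.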

[2] = LC-MS assay of GH3 conjugation of IAA with Asp or Glu; conditions: for Detected auxin conjugates: IAA-Asp / Detected auxin conjugates: IAA-Glu: LC-MS; for Detected auxin conjugates: IAA-Asp: IAA with Asp; for Detected auxin conjugates: IAA-Glu: IAA with Glu
Procedure, shortened: as §1

[3] = LC-MS assay of GH3 conjugation of dicamba with Asp or Glu; conditions: for Detected auxin conjugates: Dicamba-Asp / Detected auxin conjugates: Dicamba-Glu: LC-MS; for Detected auxin conjugates: Dicamba-Asp: dicamba with Asp; for Detected auxin conjugates: Dicamba-Glu: dicamba with Glu
Protocol: To detect and monitor the formation of acyl conjugates with 2,4-D or dicamba, a sensitive LC-MS method was developed using the respective amino acid conjugate standards. […] […] […] The supernatant was diluted 20× in water and then analyzed by LC-MS (AB Sciex 4000 QTrap coupled with Shimadzu Nexera UHPLC) using a Phenomenex Luna 3 μm Phenyl-Hexyl (00B-4256-Y0) column. The concentration of the conjugates was calculated based on the standards. Kinetic parameters were estimated by fitting initial velocity values to the Michaelis-Menten equation.
The GH3 superfamily conjugase activity analysis of IAA, 2,4-D or dicamba with Asp or Glu was done using LC-MS to analyze the final conjugate products as described in Example 1. Protein sequences of GH3 homologs (Table 3) were obtained from public databases (NCBI, http://www.ncbi.nlm.nih.gov/) by Blast analysis of AtGH3.17 protein sequence (accession # Q9FZ87). Coding sequences were designed for optimal expression in E. coli based on the protein sequences and synthesized. Synthesized coding sequences along with N-term his-tag coding sequences were cloned into a pET24a-based E. coli expression vector. The E. coli expression vectors were transformed into OverExpress C41(DE3) cells (Lucigen) for protein expression. Recombinant E. coli strains were inoculated into 5 ml LB media supplemented with 40 mg/L kanamycin and cultured overnight at 37° C. The overnight culture (0.5 mL) was inoculated into 50 mL LB medium plus 40 mg/L kanamycin and grown at 30° C. until OD600 reached 0.6. The cultures were induced with 0.2 mM IPTG at 16° C., 230 rpm overnight. Cells were harvested by centrifugation at 7,000 rpm for 10 mins. The cell pellet from 50 mL of cell culture was frozen and thawed twice and then lysed in 800 μL lysis buffer A (150 mM NaCl, 50 mM Tris-HCl pH 8.0, 5 mM MgCl2, 10% glycerol) plus 20 mM imidazole, 1 mM DTT, 0.2 mg/ml lysozyme, 1/200 protease inhibitor cocktail (EMD set3, EDTA free) and 1/2000 endonuclease. Lysate was then centrifuged at 13,000 rpm for 30 min at 4° C. Supernatant was loaded onto 200 μL Ni-NTA columns pre-equilibrated with buffer A with 20 mM imidazole at 4° C. Each column was then washed with (1) 2×800 μL of buffer A with 10 mM imidazole, (2) 2×800 μL of buffer A with 20 mM imidazole and (3) 2×200 μL of buffer A with 50 mM imidazole. Protein was eluted with 200 μL of buffer A with 250 mM imidazole. The concentration was measured by Bradford assay. Purified protein was used in conjugation reaction assays as described in example 1.

Row | Molecule | Detected auxin conjugates: 2,4-D-Asp [1] | Detected auxin conjugates: 2,4-D-Glu [1] | Detected auxin conjugates: IAA-Asp [2] | Detected auxin conjugates: IAA-Glu [2] | Detected auxin conjugates: Dicamba-Asp [3] | Detected auxin conjugates: Dicamba-Glu [3] | kcat (hrs−1) 2,4-D-Asp ([1]; conjugation of 2,4-D with Asp by recombinant GH3 protein, 2,4-D-Asp product by LC-MS, 5 mM 2,4-D substrate) [h⁻¹] | kcat (hrs−1) 2,4-D-Glu ([1]; conjugation of 2,4-D with Glu by recombinant GH3 protein, 2,4-D-Glu product by LC-MS, 5 mM 2,4-D substrate) [h⁻¹] | 2,4-D conjugation activity with Asp or Glu ([1]; result in words) | kcat (hrs−1) IAA-Asp ([2]; conjugation of IAA with Asp by recombinant GH3 protein, IAA-Asp product by LC-MS) [h⁻¹] | kcat (hrs−1) IAA-Glu ([2]; conjugation of IAA with Glu by recombinant GH3 protein, IAA-Glu product by LC-MS) [h⁻¹] | IAA conjugation activity with Asp or Glu ([2]; result in words) | Conjugation of dicamba with Glu ([3]; 16 hour reaction, result in words) | Amount of dicamba-Glu conjugates versus amount of protein in the reaction ([3]; FIG. 7, result in words) | kcat (16 hrs^−1) dicamba-Glu ([3]; conjugation of dicamba with Glu, 16 hour reaction, protein conc. 983 μg/mL)
1 | VvGH3-7: GH3 protein, accession XP_002272560 (protein, listed as Vitis vinifera) MESAAGAESNGEHEIIGWFEDVSENTGYVQTQTLCRILELNSGVEYLKKWLGDINVQEMEASALESLYTSLVPLASHADLETYIQRIADGDTSPILTNQPITTLSLSSGTTEGRQKYVPFTRHSSQTTLQIFQLAAAYRSRVYPITPGRRILEFIYSSKQFKTKGGLIAGTATTHYFASEEFKIKQEKTKSFTCSPEEVISSGDYKQSTYCHLLLGLHFHDEVEFITSTFAYSIVQAFRTFEELWRNICSDIREGIVSSRISLPKVRKAVSDIISPNPGLASWIEASCKELEDKDWFGLIPKLWPNAKYVYSIMTGSMQPYLKKLRHYAGDLPLVSADYGSTESWIGANIDPSSPPENVTFAVIPTFSYFEFIPLYRQNQNCSSSIDDFIEDEPVPLSQVKIGQEYEIVLTTFTGLYRYRLGDVVEVAGFHKGTPKLNFICRRKLILTVNIDKNTEKDLQSVVEVGSQLLGKTKAELVDFTSHADLVKQPGHYIIYWEIKGEADDKVLSECCNEMDACFVDQGYIVSRKTHSIGPLELCIVERGTFKKILDHFIGKGAALSQFKTPRCTADEVLLRILNVCTIKRFHSTAYG | No | No | Yes | No | No | No | – | – | – | – | – | – | – | – | –
2 | VvGH3-9: GH3 protein, accession XP_002280738.1 (protein, listed as Vitis vinifera) MLEKMEEFKAEKVIEEFEELTKDAGRVQRETLKKILEDNASAEYLQKQGLNGRTDPESYQACVPLVTHADLVPYIKRIADGDTSPVLTGKPIKTMSLSSGTTQGKQKYVPFNDELLETTLQIYRTSFAFRNREFPVRNGMALQFIYGSKQFKTEGGLFAGTATTNVFSSSQFKTTMKAIESPCCSPDEVIFGPDFRQSLYCHLLCGLIHHNEIQLVSSTFAHSIVYAFRTFEQVWEQLCADIQDGVLTKDVTVPSIRAVMSKLLKPNPELAEWIYKKCSGLSNWYGVIPALFPNVKYVYGIMTGSMEPYLKKLRHYAGDVPLLSADYGSSEGWIGANINPKLPPELATYAVLPNIGYFEFIPLRGSAEEDRQDKIQSSFESKPVGLTEVKIGEEYEIIVTNFAGLYRYRLGDVVKIAGFHNMTPELQFVCRRNLLLTINIDKNTEKDLQLAVEAAAEVLAPEKVEVIDFTSQVDKSTDPGHYVIFWEISGEVSVEVSSECCNCLDRSFVDAGYISSRKVNSIGPLELKLVRRGTFQKILDHYLGIGGVLSQYKTPRCVNPNNNMVLQILYSNVVKSHFSTAFG | No | No | No | No | No | No | – | – | – | – | – | – | – | – | –
3 | PtGH3-10: GH3 protein, accession EEE95291 (protein, listed as Populus trichocarpa) MEPKNTNGSSRSYEHDIISWFEDISKKAGQVQTETLRRILELNWGVEYLNKWLGDINIQDMDASALESLYTSLVPPASHADLEPYISRIADGDTVPLLTKQPITLLSLSSGTTDGRQKFVPFTDHSARTTLQIFSLAAAYRSRVYPTREGGRILEFIYSSKQFKTKGGLTAGTATTHYYASEEFKIKQEKTKCFTCSPQEVICGGDYEQSTYCHLLLGLFFCDQVEFITSTFAYSIVQAFTAFEDVWRDICNDIKHGTLSERINLAKMRKAVLSIISPNPSLASKIEENCKELETQNWLGLITKLWPNSKYVYSIMTGSMQPYFKKLRHYAGGLALVSADYGSTESWIGANVDPYLPPEDVTFAVIPTFSYYEFMPLYRENHYCGSAIDDFIEDEPVPLSKVKVGQEYEIVLTTFTGLYRCRLGDVVEVAGFHKGTPKLNFICRRKLILTINIDKNTEKDLQLVVEKGSQLLMSKARAELVDFTSHAELETQPGHYIIYWEIKGDVEEEVLGECCKKMDASFVDHGYVVSRRTKSIGPLELCIVKTGTFKKILEYFIGNGAALSQFKTPRCTSNHGLLKILNGSTIKRLYSTAYS | Yes | Yes | Yes | Yes | No | No | – | – | – | – | – | – | – | – | –
4 | PpGH3-2: GH3 protein, accession CAD42871 (protein, listed as Physcomitrella patens) MALRIENPYYKLLDTDEEIVEDFELMSRNARETQLELLRKILERNANVEYLQRQGLNGRTDEASFKACVPVSTYANIEADVDRIADGDTSPICCVDPPTSFALSSGTTGGKCKLIPRTDALLAQAMKAGQIGSVYRRRAFPRKHEGPPVVMSFQYAGRQFDTKSGLKAGTGTTNFYRSAAFKNAKSAPFSATSPVDIVLGYDVPQQMYCHLLCGLYRCQEVEQMSAIFAYMIVEPFRLLERVWRDICKDIREGTVNERVSDPELRSSVLKVLSPNPELADLIERECAKGWSGIIERLFPNINYIMSIFSGSMLPYVAPMRQYAGSVPLMNADYGASEAWIGINLDPRCPAEDASFTIIPNFAYFEFIPVNRDSAGYDSVEGDEIVGLTDVKVGQEYEIVLTTVGGLYRYRLGDIVKVTGFFNSTPKVAFVCRKGVVLSVNTDKTDEEELRLVVGKASLLLKESNMELADYSSYTDQDSQPGHYVIFWELRSHEHLDMDLLSECCKVLDQSFNNPYMRGRAARTIGPLELAIVKEGAFARLMEQFVRKNGVGASQYKVSRCFKNPATLKHFRDETIATLRSPDFPPELLAAWRPSTKIVG | – | – | – | – | – | – | 0.699 | 2.820 | active GH3 conjugase for both IAA and 2,4-D | 2.896 | 19.308 | can also conjugate IAA to Asp and Glu; also recorded: active GH3 conjugase for both IAA and 2,4-D | could conjugate dicamba with Glu; also recorded: able to conjugate dicamba with glutamate | Increased amount of dicamba-Glu was detected; also recorded: increases with increased amount of PpGH3-2 protein | 0.024 16 hrs^−1
5 | RcGH3-5: GH3 protein, accession EEF28472 (protein, listed as Ricinus communis) MTKNAERVQKETLKKILEENGSAEYLQNLGLDGRTDPESFKICVPICTHGDLEPYIQRIADGDSSPVLTGKPITTISLSSGTTQGKPKYVPFTDQLLDNTLQIFRTSFAYRNREFPLENGKALEFVFSSKQGKTKGGLAAGTATTNLFRNPNYKTALEELQFKSCSPREVIFGSDFHQSLYCHLLCGLIFREDIQFVFSTFAHSIVLAFRTFEQVWEELCDDIRNGELSSRITAPSIRTAMSHLLKPNAELADLIHTKCSGLSNWYGLIPELFPNAKYIYGIMTGSMEPYLKKLRHYAGELPLLSADYGASEGWIAANVNPLLPPELATFAVLPDIGYFEFIPLRRNGDHIYSEPKPIGLSDVKIGEEYEILVTNFAGFYRYRLGDVVKVMGFHNSTPELKFVCRRSLLLSINIDKNTEKDLQLVVEEAAKLLADEKLEVVDFSSLADRSTDPGHYVIFWEISGEPTAEVLQECCNCLDRSFLDAGYVTSRKVKAIGPLELRVVHRGTFQKILDHYLGLGAAVSQFKTPRCVGPANNVVSQILSNNVAKSYVSTAF | No | No | Yes | No | No | No | – | – | – | – | – | – | – | – | –
